According to PMC10798645:

Legend:
[1] = biological target: SARS-CoV-2 Wuhan-1 Spike (S), C-terminal 6xHis (pcDNA5) (UniProt P0DTC2); conditions: parent: est. 1.0; read off a plot
[2] = biological target: SARS-CoV-2 Omicron (BA.1) Spike (pCAGGS-SARS-CoV-2 BA.1 Spike) (UniProt P0DTC2); conditions: parent: est. 1.0; read off a plot

Substance: HA-tagged full-length BST2 (pcDNA5) (from UniProt Q10589) EC2Ala
- ratio to parent [1]: 0.74
- ratio to parent [2]: 1
